Patent publication US20240084003A1 (SIMCERE ZAIMING PHARMACEUTICAL, published 2024)

T1: monkey CD22 protein (ACROBiosystems, catalog number SI2-R52Ha) (monkey, UniProt F6W485 20-688)
T1 construct: commercial protein; also called monkey CD22-ECD; monkey CD22-ECD-His
T1 sequence: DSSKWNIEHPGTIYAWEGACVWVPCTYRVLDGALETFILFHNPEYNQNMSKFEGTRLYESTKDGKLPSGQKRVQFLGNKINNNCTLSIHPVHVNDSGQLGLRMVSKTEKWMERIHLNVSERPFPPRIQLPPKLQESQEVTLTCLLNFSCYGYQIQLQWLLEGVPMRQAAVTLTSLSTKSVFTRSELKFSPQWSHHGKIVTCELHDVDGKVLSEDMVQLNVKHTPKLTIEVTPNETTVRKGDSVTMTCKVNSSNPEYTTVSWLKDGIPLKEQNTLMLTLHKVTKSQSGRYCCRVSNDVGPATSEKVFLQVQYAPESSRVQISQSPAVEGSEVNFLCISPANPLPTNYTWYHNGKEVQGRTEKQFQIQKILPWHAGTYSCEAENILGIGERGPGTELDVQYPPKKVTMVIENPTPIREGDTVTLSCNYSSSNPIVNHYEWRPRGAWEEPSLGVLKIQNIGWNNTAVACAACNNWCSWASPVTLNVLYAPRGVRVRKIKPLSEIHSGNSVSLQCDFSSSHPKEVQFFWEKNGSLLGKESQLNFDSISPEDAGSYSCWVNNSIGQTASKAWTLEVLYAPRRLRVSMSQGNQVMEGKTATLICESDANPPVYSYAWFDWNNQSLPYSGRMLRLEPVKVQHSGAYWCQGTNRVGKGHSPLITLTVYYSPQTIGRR


What was measured:
[1] = target: T1, monkey CD22 protein (ACROBiosystems, …); test: ELISA, coated monkey CD22 protein, antibody 100 nM
Description: (§1) In order to detect the binding activity of CD22 human-murine chimeric antibodies to CD22 protein, the purified human CD22-ECD-His protein obtained in Example 2 was diluted with PBS to a final concentration of 2 μg/mL, and then added to 96-well ELISA plate at 100 μl/well. The plate was sealed with plastic film and incubated overnight at 4° C., the plate was washed 2 times with PBS the next day, and then a blocking solution [PBS+2% (w/w) BSA] was added for blocking at room temperature for 2 hours. […] After incubation at 37° C. for 2 hours, the plate was washed 3 times with PBS. HRP (horseradish peroxidase)-labeled secondary antibody (purchased from Sigma, catalog number: A0170) was added, and incubated at 37° C. for 2 hours, and the plate was washed 5 times with PBS. TMB substrate was added at 50 μl/well, and incubated at room temperature for 30 minutes, then a stop solution (1.0 N HCl) was added at 50 μl/well.
(§2) In order to detect the species cross-binding activity of the chimeric antibodies, an ELISA plate was coated with commercial murine CD22 protein (ACROBiosystems, catalog number: SI2-M52Ha) and monkey CD22 protein (ACROBiosystems, catalog number: SI2-R52Ha), respectively, and the ELISA detection was performed according to the method in Example 5.1.

[2] = target: T1, monkey CD22 protein (ACROBiosystems, …); test: ELISA, coated monkey CD22 protein, antibody 0.001 nM
Description: as §1, §2

[3] = target: T1, monkey CD22 protein (ACROBiosystems, …); test: ELISA, coated monkey CD22 protein, antibody 0.1 nM
Description: as §1, §2

[4] = target: T1, monkey CD22 protein (ACROBiosystems, …); test: ELISA, coated monkey CD22 protein, antibody 0.00001 nM
Description: as §1, §2

[5] = target: T1, monkey CD22 protein (ACROBiosystems, …); test: ELISA, coated monkey CD22 protein, antibody 10 nM
Description: as §1, §2

[6] = target: T2, CD22 on cynomolgus monkey peripheral blood B cells (cynomolgus monkey (Macaca fascicularis)); test: FACS, cynomolgus PBMC, CD20+ B cells, antibody 100 nM
T2 construct: whole, on cells; also called cynomolgus monkey B cells
From the text: (§3) The monkey peripheral blood mononuclear cells were extracted from fresh cynomolgus monkey peripheral blood (purchased from Shanghai Medicilon Inc.) according to the instructions of Ficoll-Paque Plus (purchased from GE Healthcare, catalog number: 171440-02). After the cell suspension was centrifuged, the cells were resuspended in PBS containing 1% BSA, and then the cells were counted. At the same time, the murine antibody Brilliant Violet 605 anti-human CD20 (catalog number: 302334, purchased from Biolegend) with monkey CD20 cross-binding activity and the chimeric antibodies to be tested (1 nM, 10 nM and 100 nM) were added and incubated at room temperature for 1 hour. After washing the cells three times, APC-labeled secondary antibody anti-human IgG Fc (catalog number: 409306, purchased from Biolegend) was added. After incubation at room temperature in the dark for 30 minutes, the cells were washed 5 times, gently resuspended with PBS containing 1% BSA, and detected and analyzed by FACS (FACS Canto™, purchased from BD Company). Wherein CD20 was used as a marker of B cells, and the CD20-positive B cell population was gated, the proportion of chimeric antibody positive cells was analyzed, and the proportion of chimeric antibody positive cell population to B cell population was calculated after treatments with the chimeric antibodies at the concentrations of 100 nM, 10 nM and 1 nM, respectively. The scatter plot of double-stained cells by Brilliant Violet 605-labeled CD20 and APC secondary antibody indirectly labeled chimeric antibody is shown in FIG. 10A-FIG. 10B (under the condition of 1 nM of chimeric antibody concentration).

[7] = target: T1, monkey CD22 protein (ACROBiosystems, …); test: ELISA, coated monkey CD22 protein, antibody 0.01 nM
Description: as §1, §2

[8] = target: T2, CD22 on cynomolgus monkey peripheral …; test: FACS, cynomolgus PBMC, CD20+ B cells, antibody 1 nM
From the text: as §3

[9] = target: T1, monkey CD22 protein (ACROBiosystems, …); test: ELISA, coated monkey CD22 protein, antibody 0.0001 nM
Description: as §1, §2

[10] = target: T2, CD22 on cynomolgus monkey peripheral …; test: FACS, cynomolgus PBMC, CD20+ B cells, antibody 10 nM
From the text: as §3

Row | OD450 [1] [OD450] | OD450 [2] [OD450] | OD450 [3] [OD450] | OD450 [4] [OD450] | OD450 [5] [OD450] | Proportion of chimeric antibody positive cells to B cells (%) [6] [%] | OD450 [7] [OD450] | Proportion of chimeric antibody positive cells to B cells (%) [8] [%] | OD450 [9] [OD450] | Proportion of chimeric antibody positive cells to B cells (%) [10] [%] | Binder
1 | 0.44 | 0.06 | 0.07 | 0.06 | 0.17 | 43 | 0.06 | 17 | 0.06 | 28 | F1.7.6 (antibody, human IgG1, kappa, V domains shown, human-murine chimeric IgG1 kappa; VL name legible) VH: EIQLQQSGPELVKPGTSVKVSCKASGYDFTRYNMYWVKQSHGKSLEWIGYIDPYNGDTRYNQKFKGKATLTVDKSSSTAYMHLNSLTSEDSAVYYCEAIYYDMEGYALDYWGQGTSVTVSS VL: DIVMSQSPSSLAVSVGEKVTMSCKSSQSLLYSNNQKNYLAWYQQKPGQSPKKLIYWASTRESGVPDRLTGSGSGTDFTLTISSVTAEDLAVYYCQQFYSYPWTFGGGTKLEIKR
2 | 0.45 | 0.06 | 0.17 | 0.06 | 0.31 | 29 | 0.09 | 11 | 0.06 | 16 | F1.231.15 (antibody, IgG1, V domains shown, human-murine chimeric IgG1 kappa) VH: QVQLQQPGAELVKPGASVKLSCKTSGYTFTIYWMQWVKQRPGRGLEWIGRIDPHSGDTHYNENFTTKVTLTVDETSNTAYMHLSGLTSEDSAVYYCARRDYSYYVLDYWGQGTSVTVSS VL: DVVLTQTPLSLPVSLGDQASISCRSSQSLVHINGDTYLHWYLQKPGQSPKLLIYTVFNRFSGVPDRFSGSGSGTDFTLKISRVEAEDLGAYFCSQSTHVPYTFGGGTKLEIKR

Second part, the binder before the results:

Row | Binder | OD450 [1] [OD450] | OD450 [2] [OD450] | OD450 [3] [OD450] | OD450 [4] [OD450] | OD450 [5] [OD450] | Proportion of chimeric antibody positive cells to B cells (%) [6] [%] | OD450 [7] [OD450] | Proportion of chimeric antibody positive cells to B cells (%) [8] [%] | OD450 [9] [OD450] | Proportion of chimeric antibody positive cells to B cells (%) [10] [%]
3 | F1.224.1 (antibody, human IgG1, kappa, V domains shown, human-murine chimeric IgG1 kappa; VL name legible) VH: EVLLHQSGPELVKPGASVKISCKASGYTFTDFNMDWVRQRHGQSLEWIGDVNPNNGGTIYNQKFKGKATLTVDKSSSTVYMDLRSLTSDDTAVYYCVRLGTSDYGEAWFISWGQGTVVTVSA VL: DIVLTQSPASLAVSLGQRATISCRASQSVSTPRYSFMHWYQQKPGQPPKLLIKYASNLESGFPARFTGSGSGTDFTLNIHPVEEEDTAAYYCQQSWAIPWTFGGGTKLEIKR | 2.87 | 0.6 | 2.3 | 0.08 | 2.48 | 97 | 1.86 | 83 | 0.15 | 96
4 | F1.250.16 (antibody, human IgG1, kappa, V domains shown, human-murine chimeric IgG1 kappa; VL name legible) VH: QVQLQQSGAEQVKPGASVKMSCKASGYTFTTYPIEWMKQNHGESLDWIGNIHPYNDDTEYNEKFKGKATLTVEKSSNTVFLELSRLTSDDSAVYYCVRGDYYNSRYWYFDVWGTGTTVTVSS VL: DIVMTQSQKFMSTTVGDRVSITCKAGQNVRTAVAWYQQKPGQSPKLLIYSASTRYIGVPERFTGSGSGTDFTLTITNMQSEDLADYFCQQYSSFPLTFGTGTKLELKR | 3.08 | 1.02 | 2.81 | 0.1 | 2.97 | 97 | 2.62 | 92 | 0.23 | 95
5 | F1.267.9 (antibody, human IgG1, kappa, V domains shown, human-murine chimeric IgG1 kappa; VL name legible) VH: EVQLQQSGPVLVKPGASVKMSCKASGYTFTDFYMNWAKQSHGKSLEWVGVINPYNGGINYNQKFKGKATLTVDKSSSTAYMEFNSLTSEDSAVYYCARRMEYHAMDYWGQGTSVTVSS VL: DIVLTQSPASLAVSLGQRATISCRASESVDNYGFDFIHWYQQKPGQPPKLLIYRASNLESGIPARFSGSGSRPDFTLTINPVETDDVATYYCQQSIKDPWTFGGGTKLEIKR | 2.27 | 0.1 | 1.07 | 0.06 | 1.89 | 95 | 0.27 | 39 | 0.07 | 91
6 | F1.105.11 (antibody, human IgG1, kappa, V domains shown, human-murine chimeric IgG1 kappa; VL name legible) VH: EVQLQQSGPVLVKPGASVKMSCKASGYTFSDYFMNWVKQSHGKSLEWIGIINSYSGGTSYNQKFKGKATLTVDKSSSTAYMELNSLTSEDSAVYYCARWMDYWGQGTSVTVSS VL: DVQITQSPSYLAASPGETITINCRTSESISKHLAWYQEKPGKTNKLLIYSGSTLQSGIPSRFSGSGSGTDFTLTISSLEPEDFAMYYCQQHNEYPWTFGGGTKLEIKR | 1.29 | 0.17 | 1.31 | 0.06 | 1.4 | 69 | 0.68 | 46 | 0.07 | 59
7 | F1.120.15 (antibody, human IgG1, kappa, V domains shown, human-murine chimeric IgG1 kappa) VH: QVQLQQSGPELVKPGASVKISCKASGNAFSNSWMNWVKQRPGKGLEWIGRVYSEDGDTQYNGKFRDKATLTADRSTSTAYMQLSSLTSEDSAVYFCARWLIYYGTYGAMDYWGQGTSVTVSS VL: DIQMTQTTSSLSASLGDRVTISCRASQDINNYLNWYHQKPDGTVKLLIYFTSRPYSGVPSRFSGSGSGTDYSLTISNLEQEDIATYFCQQGNTLPWTFGGGTKLEIKR | 1.64 | 0.16 | 1.56 | 0.06 | 1.9 | 93 | 0.65 | 27 | 0.07 | 86
